Laboratory results as given in the RNAGym collection of RNA variant scans (doi:10.1073/pnas.2313332121).

B1: TPR t1 (parent)
chain: GACCAAUCUGCCCUCAGAGCUCGAGAACAUCUUCGGAUGCAGAGGAGGCAGGCUUCGGUGGCGCGAUAGCGCCAACGUCCUCAACCUCCAAUGCAUCCCACCACAUGAUGAUGCCUGAAGAGCCUUGGUUUUUUG

Variants of: B1
Assay: polymerase ribozyme fitness, log enrichment relative to wild type (log ratio); higher = more active; in vitro selection for triplet polymerase activity
In short: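 Streptavidin-bead capture of gel-excised extended constructs, followed by RT-PCR, closed a single triplicate in vitro selection round. That round began by annealing PCR-built, transcribed mutant libraries of each subunit of a heterodimeric triplet polymerase ribozyme with a biotinylated primer, the partner subunit and triplets, then incubating them frozen at −7 °C. After Illumina sequencing of inputs and outputs, genotypes needed ≥10 input reads and ≥1 read per output. Fitness is the base-2 logarithm of genotype enrichment over wild-type enrichment, using inverse-variance-weighted replicate averages.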

Variant	polymerase ribozyme fitness (log ratio)
C22A G23A G35A C82G C89U C104U A111U	-6.73
C20U G60U C72U C94U	-1.4
U21A G42U C98U C104U C114G C124A	-5.22
U21G U87G U133G	-3.13
U21C C70U A111C	-0.344
U21A G52A A75U C115A C124A	1.07
U21A C53U A74C	-0.636
U21A U116G G122U C124G U126A	-1.21
U21G U38C G71C C99G C114U G120U A121U	-7.22
U21A G36C G113U U133A	-2.25
U21G C72A A121U	0.876
C20U U59A C76G	-2.85
C22A C40U C49A C72U C123G	-5.79
C20U G45C	-3.07
U21C C56U	0.0213
U21G G39A	-1.39
U21C C72G A90C	-1.98
U21G C40G	-0.951
C20U C62U C94U	-2.47
U21C C34A C49U U78C G120A	-2.92
C20U C98U	-1.43
C20U C72A A83G G113U	-2.08
U21A G60U A83U U126C	-0.934
U21G A37G G61A G135U	-2.33

Variant	polymerase ribozyme fitness (log ratio)
C20U G45A G93U	-4.76
C22A C73U A83G C115A	-4.8
U21C G60C	-0.312
U21A G61C U112A U133C	-0.24
U21G C22A A27U A95U C123A	-5.39
C22A C53U C64U C124U	-3.7
U21A U38G C56A	-1.66
U21A G47C	-1.67
U21A A74C C98A C114G U133G	-7.51
U21A A29C G48A	-3.86
U21A C72G G77C C85A	-3.48
U21A G52C C56A C76U C101U	-3.81
U21G C73A C94A	-2.37
C22A G63A C94A A100U C115A	-5.85
U21C G71A G93A	-1.91
U21A G61C C114A	-2.8
C20U U92A	-4.08
U21A A50G C72U A95G A105C	-2.73
C22A C64U	-4.37
C20U G60U U78A G113C	-2.3
U21A C104U G117A G120U	-3.67
C22A A26C A27U C86A U112C	-6.59
C20U U96G C123G U129A	-1.64
C20U G63A	-1.73

Variant	polymerase ribozyme fitness (log ratio)
C20U G63C	-2.1
U21G C97G U112G	-5.7
U21G A46U G69U G117C	-4.95
U21C A46G C53A G71C C98U	-6.73
U21G C40U G47U G63U C98A G120C	-7.2
C20U C73G G113U U130A U131C	-3.02
U21A C49U G63U	-3.27
U21C G63A C82A C124G U133G	-0.991
U21C U112G	-0.886
U21A G39U C64U A91C	-2.67
C20U U21G C49A C98U	-4.2
C20U U33G	-6.55
C20U G117U A119U	-4.12
C20U U109A	-4.34
C20U C56U C70U A84U U130C	-2.96
U21A G61A C88A G110A	-4.74
U21C G63C	-0.656
U21G G36A U54A G63U C82A C123A	-3.52
U21A A26U	-4.35
C20U C64U	-1.68
U21A G61C	-1.97
U21G G93A C114G	-4.94
U21C G58C	-0.199
C20U G61C C82A C124G	-1.38

Variant	polymerase ribozyme fitness (log ratio)
C22A A111C A119U	-6.95
C22A G39U	-5.33
U21A G77A	0.00839
C20U C89U A95U C115U	-3.32
U21A G63U	-1.92
U21A G51A G57U	-2.59
C20U G61A C98A	-5.48
U21A U54C G93C	-1.26
U21A C72U	-2.3
U21A C72G	-0.599
C20U G35U	-5.32
U21G C56A C70U C89A G113U	-3.69
U21C A29U C53G G61A C89U	-3.59
C20U G42U C56A C115G	-3.91
C22A C124A U134C	-4.93
U21C A27U	-4.9
C20U G45U A50C G77A U78C A84U C123A	-3.79
U21A U59A U81G C82G C115U	-5.96
U21C C73A C89A	-2.96
U21A C62G C73U	-2.55
C22A A37U A43C C114A A118G	-6.5
C22A C56A	-3.44
C20U G36A G122A G127C G135U	-5.15
C22A A29G C40A G63U A74U G93A G113C G120U	-7.43

Variant	polymerase ribozyme fitness (log ratio)
C22A C123A	-4.13
U21G G47C C85G G93C A100U C101U	-5.69
U21G G120U C123A	-1.07
C22A C28U	-4.42
C20U U78C	-1.11
U21G C22A A74G	-4.4
C20U G42U C56A A74U C115G	-4.76
U21A A26G C73U G77A	-2.54
U21A C97G	-4.44
C22A C34U G36U G61C A111U	-6.58
U21A A103U	-6.15
U21C G42A G52U C124A U125A	-1.88
C22A G61U C102A G122A	-5.53
U21A A41U A90G	-0.995
C20U U33G C123U	-6.12
U21C G69A C104U	-2.28
U21C G57U C72G	-2.29
C22A	-4.89
C20U C70U G113U G120U	-3.51
U21G U55G U112A	1.42
C20U G69A G120U	-4.11
C22A C123A U125G	-4.58
C20U G52A G60A U96A	-3.48
U21C G36U C64U	-0.911

Variant	polymerase ribozyme fitness (log ratio)
C20U U81A	-1.98
C20U C56U G63C C94A G120C	-3.97
U21A G44A G113C	-3.04
C22A C40U C73U U112A U129C	-4.96
C20U C64U C85G C94G	-3.93
U21A C70A	-3.21
C20U G48U G57U G60A	-2.57
C20U G47A C49G C123A U125G	-2.77
C20U G42U U55G G69C U87C	-4.35
U21G C88A C97A A121C	-5.55
C22A C79U U87A	-4.8
U21C A29U C62U A84C U112A A119G G120C	-1.53
C20U C76U G93C	-3.66
U21C C49A U78G C123A	-1.05
U21C C101U	-0.578
C20U G45A G117U G127C U130G	-4.33
U21C G71U	-0.75
U21A U81A	-1.49
C22A C82U A90U U112A	-4.93
U21C A121C	1.32
C20U G71U	-1.29
U21G G45U C101A	-3.2
U21C C56A G69U C70U U96A A119G	-2.46
C20U C73A A95U U106A G122A	-4.57

Variant	polymerase ribozyme fitness (log ratio)
C20U C73U A95C U129A	-4.3
U21G C72U A75U	-1.05
U21A C28A G71A C79U U81A G110C	-6.99
U21G C64U	-2.06
U21G G61C	-3.98
U21C C72G C85A U116C	-3.42
U21A G42U G60C	-2.45
U21C A27G C56A C88A	-4.66
C22A A84U	-5.54
U21C G39A U54A U78A C98U G110U	-6.3
C20U G45A C53G	-1.22
C20U G52C C114A C123U	-4.27
C20U G110C	-4.31
U21G C62A	-2.26
U21A A46G C114G	-3.92
C20U G52A G120A	-1.57
U21A A50U G61U U130A	-1.97
U21C G57U	-0.235
U21C U54C G63C C80A A105C C115U A118C	-7.47
U21C G42A	-1.45
U21G G48U U59C A74U C114A	-2.3
C20U G113U	-0.99
C20U G113U G120U	-3.12
